The nanobody polyreactivity screen of Harvey et al. (2022)

Assay: yeast display, Sf9 membrane polyspecificity reagent, FACS + sequencing; frameworks hold sequencing errors
Procedure, shortened: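 Synthetic nanobody libraries on Saccharomyces cerevisiae BJ5465 were galactose-induced for 36–48 hours, stained 1 hour at 4 °C with 10% biotinylated, detergent-solubilized Sf9 membrane reagent and enriched on streptavidin microbeads. FACS then separated cells into low and high (top ~1%) gates by anti-HA (expression) and streptavidin (reagent binding) fluorescence. Genes were colony-PCR amplified, MiSeq 2 × 250 sequenced and CDR-length filtered. A clone's polyreactivity label is that of its gate of origin.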

| Sequence | polyreactivity (PSR sort gate) |
| --- | --- |
| QVQLVESGGGLVQAGGSLRLSCAASGSTFTTYGMGWYRQAPGKERELVAAISLSSGRTYYADSVKGRFTISRDNAKNTVYLQMNSLKPEDTAVYYCNKRSQKPSQYKPYGYWGQGTQVTVSS | high polyreactivity |
| QVQLVESGGGLVQAGGSLRLSCAASGRIFDYNAMGWYRQVPGKERELVAAITKDDGSTYYADSVKGRFTISRDNAKNTVYLQMTSLKPEDTAVYYCAADFYWTYVDIWYDYWGHGTQVTVSS | low polyreactivity |
| QVQLVESGGGLVQAGGSLRLSCAASGFIFGYNAMGWYRQAPGKERELVAAISYSGVSTYYADSVKGRFTISRDNAKNTVYLQMNSLKPEDTAVYYCAARPIGYKPRGEYDYWGQGTQVTVSS | high polyreactivity |
| QVQLVESGGGLVQAGGSLRLICAASGITFWYYAMGWSRQEPGKERELVAAITRRGRTNYADSVKGRFTISRDNAKNTVYLQMNSLKPEVTAVYYCAVDLYSFSPRYYYWGQGTQVSVSS | low polyreactivity |
| QVQLVESGGGLVQAGGSLRLSCAASGFSFSRYAMGWYRQAPGKEREFVASITRRGGSTYYADSVKGRFTISRDNAKNTVYLQMNSLKPEDTAVYYCNAGYTWGRFEYWGQGTQVTVSS | high polyreactivity |
| QVQLVESGVGLVQAGGSLRLSCAASGLIFGYYAMGRNRQAPGKERELVAAITRGGGRTYYADSVKGRFTISRDNAKNTVYLQMNSLKPEDTAVYYCNAVRRVSSAGEFDYWGQGTQVTVSS | high polyreactivity |
| QVQLVESGGGLDQAGGSLRLSCAASGLTFAKYAMGWYRQAPGKERELVAAIRSGDDTTYADSVKGRFTISRDNAKNTVYLQMNSLKPEDTAVYYCAARYYRTWHGGFGYWGQGTQVTVSS | high polyreactivity |
| QDQLVESGGGLVQAGGSLRLSCAASGSIFQSNAMGWYRQAPGKERELVAAITSVGRTNYADSVKGRFTIARDNAKNTVYLQMNSLKPEDTAVYYCAADLRGDNRYYYWGQGTQVTVSS | low polyreactivity |
| QGQLVESGGGLVQAGGSLRLSCAASGSTFYTNAMGWYRQAPGKERELVAAISGSGGSTYYADSVKGRFTISRDNAKNTVYVQMNSRKPEDTAVYYCAARSRYYYTRFDYWGQGTQVTVSS | low polyreactivity |
| QVQLVESGGGLVQAGGSLRLSCAASGRIFRSNAMGWYRQAPGKERELVATITSSGGRTYYADSVKGRFTISRDNAKNTVYLQMNSLKPEDTAVYYCNAQQRTRGQKAQWVRDEYWGQGTQVTVSS | low polyreactivity |
| QVQLVESGGGLVQAGGSLRLICAASGRIFKLYAMGWYRQAPGKERELVASINSGGGSTNYADSVKGRFTISRDNAKNTVYLQMNSLKPEDPAVYYCAKCYRRVYGPFFYWGQGTQVTVSS | low polyreactivity |
| QVQLVESGGGLVQAGGSLRLTCAASGSTFINYAMGWYRQAPGKERELVAAYADSVKGRFTISRDNAKNTVYLQMNSLKPEDTAVYYCNAVTGEWGQGTQVTVSS | low polyreactivity |
| QVQLVESWGGLVQAGGSLRLSCAASGSTFYRYAMGWSRQAPGKERELVAAINTGGSTNYADSVKGRFTISRDNAKNTVYLQMNSLKPEDTAVYYCAARFQYYRKYDYWGQGTQVTVSS | low polyreactivity |
| QVQLVESGGGLVQAGGSLRLSCAASGSIFTYNVMGWYRQAPGKERELVDAISWDGDSTYYSDSVKGRFTISRDNEKNTVYLQMKSLKQDDTAVYYCAADVHEKFQYDYWGQGNQVTVSS | high polyreactivity |
| QVQLVESGGGLVQAGGSLRLSCAASGGTFGYYAMGWYIQAPGTERELVAAISWSGGSTYYADSVKGRFTISRDNAKNTVYLQMNSLKAEDTAVYYCNAVTRFGYVKFDYWGQGTQVTVSS | high polyreactivity |
| QVQLVESGGGLVQAGGSGRLSCAASGITCAYYAMGWYRQAAGKERELVAVITSGGRPNYADSVKGRVTISRDNAKNTVYLQMNSLKPEDTAVYYCAAYRSSKTLRRGYYYWGQGTQVTGSS | high polyreactivity |
| QVQLVESGGGLVQAGGSLRLSCAASGSIFYDYAMGWYRQAPGKERELVAALTNDDSSTYYADSVKGRFTISRDNAKNTVYLQMNSLKPEDTAVYYCRFKYAVAHQFWVYRYDYWGQGTQVTVSS | low polyreactivity |
| QVQLVESRGGLVQAGGSLRLRCAASGYIYYQYAMGWSRHAPGKETALVGAISLSGGMTYYADSVKGRFTISRDNAKNTVYLQMNSLKPEETGVYFCNAQSRVWCKVYYWGQGTQVTVSS | high polyreactivity |
| QVQLVESGGGLVQAGGSLRLSCAASGSTFLTYAMGWYRQAPGKERELVAAIRWSGGSTYYADSVKGRFTISRDNAKNTVYLQMNSLKPEDTAVYYCAARSPRASGNSDYWGQGTQVTVSS | high polyreactivity |
| QVQLVESGGGLVQAGGSLRLSCAASGSIFLYNAMGWYRQAPGKERELVAAISKSGGSTYYADSVKGRFTISRDNAKNTVYLQMNSLKPEDTAVYYCAAGYGRRIRYGSEYDYWGQGTLVTVSS | low polyreactivity |
| QVQLVESGGGLVQAGGSLRLSCAASGNTFYPYAMGWYRQAPGKERELVAAITSSGGSTYYADSVNGRFTISRDNAKNTVYLQMNSLKPEDTAVYYCAAYIYFLGMDYWGQGTQVTVSS | low polyreactivity |
| QVELVESGGGLVQAGGSLRLSCAASGSTFYYNAMGWYRQGPGTERELVAASTFTGGSTYADSVKGRFTISRDNAKNTVYLQMTSLKPEDTAVYYCAATIQRHDYLGTGYDYWGQGTQVTVSS | low polyreactivity |
| QVQLVESGGGLVQAGGSLRLSCAASGSIIYRYVMGWYRQAPGKERESVAAISWRGTNTYADSVKGRFTISRDNAKNTVYLQMNSLKPEDTAVYYCAARKWDRYRDFEYWGQGTQVTVSS | high polyreactivity |
| QVQLVESGGGLVQAGGSLRLSCAASGSTFAWNAMGWDRQAPGKERELVAAISKSGGSTYYADSVKGRFTISRDNAKNTVYLQMNSLKPEDTAVYYCAASGTVYARVRYYYWGQGTQVTVSS | high polyreactivity |
| QVQLVESGGGLVQAGGSLRLSCAASGIIWYYAMGWYRQAPGKERELVAAISWSSGSTYYADSVKGRFTISRDNAKNTVYLQMNSLKPEDSAVYYCAADVYLVKYDYWGQGTQVTVSS | high polyreactivity |
| QVQLVESGGGLGEAGGSLRLSCAASGSTFGYYAMGWYRQAAGKEREFVAAITGNSDNTYYADSVKGRFTISRDNATNTVYLQMNSLKPEDTAVYYCNDALDPFRFEYWRQGTQVTVSS | low polyreactivity |
| QVQLVESGGGLVQAGGSLRLSCAASGSTFGSNAMGWYRQAPGKEREFVAAISRRGGSTYYADSVKGRFTISRDNAKNTVYLQMNSLKPEDTAVYYCAADYISLREEDYWGQGTQVTVSS | high polyreactivity |
| QVQLVESGGGLVQAGGSLRLSCAASGGIFVSYAMGWYRQAPGKERELVAAITSGGGTSYADSVKGRFTISRDNAKNTVYLQLTSLKPEDTAVYYCAARFLWSVFGRKGGYWGQGTQVTVSS | low polyreactivity |
| QVQLVESGGGLVQAGGSLRLSCAASGYIFGWNAMGWYRQAPGKERELVASIRWGGGSTYYADSVKGRFTISRDNAKNTVYLQMNSLKPEDTAVYYCAAKRRYYGPWSRIGYDYWGQGTQVTVSS | low polyreactivity |
| QFQLVESGGGLVQAGGRLRLSCAASGRIFQLYTMGWYRQAPGKEREFVASISFITGRTYYADSVKGRFTISRDNAKKTVYLQMNSLKPEDTAVYYCNTRYDGGFDSWGQGTQVTVSS | high polyreactivity |
